Measurements reported in article PMC2877774, “Structural and Biochemical Bases for the Redox Sensitivity of Mycobacterium tuberculosis RslA” (Journal of Molecular Biology, 2010).
Values joined by “and” are separate entries in the source; they are usually repeats but may differ in a detail not shown here. Equal entries are not always repeated.

B1: Anti-σ domain (ASD) of Mycobacterium tuberculosis RslA (residues 1–108), Zn2+-bound (domain or fragment)
chain: MTMPLRGLGPPDDTGVREVSTGDDHHYAMWDAAYVLGALSAADRREFEAHLAGCPECRGAVTELCGVPALLSQLDRDEVAAISESAPTVVASGLSPELLPSLLAAVHR
notes: Anti-sigma-L factor RslA, Mycobacterium tuberculosis, cytosolic anti-sigma domain, residues 1-108; also called holo-RslA; Mtb RslA

How the values were obtained:
[1] = target: B1; assay: SPR; BIACORE 2000; RslA immobilised on a CM5 chip at 12 ng/mm2; σ^L, σ2^L, σ4^L as analytes; 20 mM Tris-HCl pH 7.8, 200 mM NaCl, 50 mM imidazole, 1 mM DTT (holo-RslA); details: both partners purified
[2] = target: the molecule itself; assay: SEC + other: dynamic light scattering

| Binder | Kd [1] [µM] | stoichiometry N [2] |
| --- | --- | --- |
| σ2^L domain of Mycobacterium tuberculosis σ^L (domain or fragment) MARVSGAAAAEAALMRALYDEHAAVLWRYALRLTGDAAQAEDVVQETLLRAWQHPEVIGDTARPARAWLFTVARNMIIDERRSARFRNVV | ~2 | – |
| B1 | – | 2 and 4 |
| Apo-RslA: anti-σ domain of Mycobacterium tuberculosis RslA (residues 1–108), Zn2+-free, oxidized (domain or fragment, disulfide bond between Cys54 and Cys57 in oxidized apo-RslA; Zn2+ removed, For SPR the Zn2+ was removed on the chip with 10 mM H2O2 and 2 mM TPEN; in solution with 1 mM H2O2 and 5 mM TPEN; also called Zn^2+-free RslA; oxidized RslA) MTMPLRGLGPPDDTGVREVSTGDDHHYAMWDAAYVLGALSAADRREFEAHLAGCPECRGAVTELCGVPALLSQLDRDEVAAISESAPTVVASGLSPELLPSLLAAVHR | – | 2 and 4 |
